B1: CLCN6 (parent)
chain: MAGCRGSLCCCCRWCCCCGERETR
B2: ETS1 (parent)
chain: YVRDRADLNKDKPVIPAAALAGYT

Variants of: B1
Test: protein stability index of a GFP-peptide fusion (GPS, HEK-293T) (PSI 1-6); higher = more stable
Conditions: c terminus: a fixed tail appended
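Note: lentivirally expressed fusions sorted by FACS into six bins by GFP to DsRed ratio, PSI derived from sequencing read proportions per bin multiplied by bin number.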

Protein stability index of substitutions, site by site:
L8: K 1.53; G 2.1; E 1.83; S 1.22; N 1.42; V 2.21; T 1.42; D 1.17; R 2.16; F 1.1; C 1.54; I 1.32; Q 1.29
A2: F 2.2; M 1.73; D 2; L 1.33; P 1.37; Y 1.98; I 2.07; G 2.1; E 2.77; H 2.81; Q 1.74; V 1.46; K 2.68
C12: D 2.35; H 1.52; L 2.86; F 3.72; Y 2.23; I 2.88; R 1.95; G 3.2; M 2.19; V 1.94; P 1.66; N 2.9; K 1.89; S 1.96; T 2.59
C15: S 2; K 1.82; I 1.87; Y 1.36; D 1.71; P 1.5; F 2.99; V 2.08; M 1.65; G 2.04; H 2.6; L 2.74; Q 2.39; A 1.97; N 1.76
W14: L 3.15; E 2.08; C 1.53; F 1.95; P 2.33; K 2.32; A 1.89; M 1.14; G 2.23; Y 1.55; Q 2.47; N 2.06; H 2.06; R 2.22; T 3.2
M1: K 2.14; E 1.22; P 2.12; H 2.14; S 1.56; D 1.78; A 1.91; G 1.86; Q 1.65; C 1.98; N 1.56; L 1.39
C4: H 2.07; D 2.24; E 2.58; R 2.33; L 2.74; K 2.35; Y 2.12; W 1.79; F 2.4; G 1.45; I 1.61; A 1.84; S 1.69
C10: T 3.66; M 1.28; P 1.45; D 1.24; F 1.36; H 1.69; W 1.69; I 1.79; A 1.42; Q 1.54; N 1.7; K 2.07; Y 1.88
G6: A 1.83; T 1.59; E 2.38; L 1.32; H 1.86; Q 2.28; N 1.72; F 1.92; S 1.82; P 1.58; W 2.54; D 2.36; M 1.41; I 2.06; R 2.52; Y 1.89; V 1.37
G3: Y 2.37; E 2.09; W 1.9; F 2.11; R 2.1; V 1.15; K 1.52; D 1.8; I 1.44; N 1.5; Q 1.31; M 1.99; P 1.27
C9: F 1.77; D 1.18; T 2.16; W 2.65; P 1.69; G 2.23; Q 2.64; E 1.45; A 3.15; N 1.67; I 1.76; L 1.64; M 2.65; H 3.07; Y 1.69; K 1.77; R 1.28
R13: W 3.64; T 1.95; G 2.27; V 1.78; F 2.78; E 2.4; H 2.06; A 2.01; K 1.1; Y 2.57; L 2.4; S 1.94; C 2.02; N 2.4; P 1.76; I 1.3; M 2.13; Q 1.79
S7: I 2.55; T 1.77; H 1.89; Y 1.43; P 2.19; K 1.5; N 1.09; C 2.52; R 1.37; W 2.47; A 1.5; F 1.91; Q 1.49; L 1.9
R5: W 1.98; A 1.98; D 1.38; F 2.41; G 1.49; Y 3.45; P 1.29; Q 2.33; C 2.33; E 1.34; I 1.92; T 1.44; K 3.21; M 1.38
C11: D 2.23; Q 1.9; A 2.42; T 2.24; I 1.68; Y 2; W 2.26; E 2.27; N 2.15; F 2.72; G 3.4; R 1.97; M 1.84; K 1.17; V 1.41; L 3.23; H 1.3; S 1.77

Variants of: B2
Test: as above
Conditions: c terminus: a fixed tail appended

Protein stability index, by site and new letter:
T24: K 2.81; C 2.47; E 2.08; W 4.5; L 2.7; Y 2.11; I 2.37; H 3.26; S 1.98; R 2.1; F 1.84; Q 2.69; G 1.69; M 2.67; P 2.77; A 2.37; V 1.74; D 1.45
A19: F 3.59; P 2.04; L 1.55; H 1.75; Y 2.13; V 3.93; M 1.63; S 1.86; E 1.91; Q 2.84; G 2.62; W 2.98; D 2.07; K 2.9; C 1.86; T 2.17; I 2.14; N 2.17; R 2.53
A21: G 1.63; Q 1.95; N 2.14; F 3.51; Y 2.74; R 2.07; H 2.06; V 2.38; I 2.42; S 2.53; K 2.08; M 1.45; T 2.52; L 3.03; E 2.1; P 1.65; D 2.4; W 2.75
A18: Y 2.19; W 2.53
G22: N 2.15; V 2.74; S 1.66; F 2.21; W 2.55; K 2.18; T 2.05; Q 2.12; A 2.8; E 1.77; H 1.63; L 1.85; Y 1.69; P 2.01; D 2.53; R 1.69; C 2.39; I 2.29; M 1.63
L20: V 2.02; E 1.81; P 2.41; I 2.04; F 2.8; N 1.94; T 2.12; Y 3.18; S 1.82; C 2.48; D 1.55; H 1.89; R 2.35; A 2.06; K 1.48; M 2.45; Q 2.79; G 2.02; W 3.22
Y23: L 2.58; M 1.89; G 1.73; N 2.34; W 2.5; I 2.53; R 1.89; Q 1.86; H 2.18; K 1.46; V 2.13; E 2.3; A 2.15; D 1.91; T 2.26; F 2.21; C 2.51; P 1.47; S 1.52

From the supplement of paper PMC10567573
